Data published in US12661385B2, “Modulation of mTORCI activity and autophagy via CIB2-RHEB interaction” (University of Maryland, Baltimore, priority 2018, dated 2026).

Experiments:
[1] = test system: mTORC2; test: Phosphoprotein immunoblots of HEK293 cells overexpressing increasing amounts of CIB2, mTORC2 target; assay type: cell-based
Procedure: FIG. 3. […] Note the stronger interaction between CIB2 and Rheb S20N variant as compared to Q64L variant (GDP vs GTP mimetic, respectively). c, CIB2 preferentially interacts with GDP-loaded Rheb is further confirmed by co-IP experiments of HA-GST-Rheb immobilized on […] and loaded with either GDP or GTPγS, followed by incubation with tdTomato-CIB2 lysate. d, Proposed model of CIB2 function in retinal sensory cells. […] Loss of CIB2 results in reduced autophagy and exacerbated mTORC1 signaling, thus leading to RPE pathology and secondary PR dysfunction. e, f Immunoblots from RPE/choroid lysates from dry AMD or control age-matched donors indicate reduced CIB2 expression, overactive mTORC1 and reduced autophagy, quantified in panel f. Unpaired two-tailed 1 test was used to determine statistical significance. p value of <0.05 (*), <0.01 (**), and <0.001 (***). Please note that one control sample (ψ) is outliner and is highly variant from the rest, Re-quantification, omitting the highly variant control sample, is shown in FIG. 15. g.
mTORC1 integrates various metabolic and amino acid signals through its nutrient-sensing arm and growth signals, which converge on the small GTPase Rheb, via the TSC complex (Wolfson et al., Cell Metabolism 26, 301-309 (2017)). We first tested if CIB2 is a specific negative regulator of mTORC1 and/or mTORC2. […]

[2] = test system: RPE-J cells; test: Immunoblots for autophagy/lysosomal proteins in transfected RPE-J cells; assay type: cell-based, rat; details: RPE-J cells over-expressing CIB2 vs GFP
Text: FIG. 12. CIB2 mutant mice have less autophagy/lysosomal proteins, and overexpression of CIB2. in vitro, is sufficient to boost levels of autophagy/lysosomal proteins and clearance of opsin. a. […] Pro-cathepsin D levels were quantified from non-saturated exposures. c. Representative immunoblots for indicated autophagy/lysosomal proteins from RPE-J cells transiently transfected with GFP or CIB2-IRES-GFP. Endogenous CIB2 is observable in long exposure immunoblot, while transiently overexpressed CIB2 is readily observable in short exposure immunoblot. d. Quantification for immunoblots shown in (c). n=5 (LAMP-1) or 4 (ATG5-ATG12) independent transfection experiments. e, Schematic of the pulse-chase phagocytosis assay (left panel)—also see Examples below. […]
Complementary to the findings of Cib2 mutant mice, over-expressing CIB2 in RPE-J cells increased LAMP-1 and ATG5-ATG12 complex proteins levels (FIG. 12c-d). […] To test this idea, we assessed LC3-II flux. LC3-I is a cytosolic protein which when lipidated with a phosphatidylethanolamine adduct (LC3-II form) localizes to the growing auto/phagosome membrane, and thus can be used as a reliable readout for the dynamic autophagic process (Valapala et al., Autophagy 10, 480-496 (2014); Kim et al., Noncanonical Autophagy Promotes the Visual Cycle. Cell 154, 365-376 (2013); Klionsky et al., Autophagy 12, 1-222 (2016)). […]

B1: CIB2: calcium and integrin binding protein 2, over-expressed in cells from plasmid constructs; SEQ ID NO:1 (human), SEQ ID NO:2 (mouse) (protein)
chain: MGNKQTIFTEEQLDNYQDCTFFNKKDILKLHARFYELAPNLVPMDYRKSPIVHVPMSLIIQMPELRENPFKERIVEAFSEDGEGNLTFNDFVDMFSVLCESAPRELKANYAFKIYDFNTDNFICKEDLEMTLARLTKSELEEDEVVLVCDKVIEEADLDGDGKLGFADFEDMIAKAPDFLSTFHIRI
modifications: left off: large carriers
mTORC2-mediated phosphorylation of AKT [1]: no changes | ATG5-ATG12 complex protein levels [2]: increased | LAMP-1 protein levels [2]: increased
